Holding throughout (assay): cell_activity
Data set [1] has as its system ZFN 20186 (CTLA-4) (synthetic). The settings on record: pair 20186/20185, Cel-I, K562.
Data set [2] concerns ZFN 20185 (CTLA-4) (synthetic). The conditions noted are these: pair 20186/20185, Cel-I, K562.
Data set [3] deals with ZFN 20190 (CTLA-4) (synthetic). The settings on record: pair 20190/20189, Cel-I, K562.
Data set [4] has as its system TALEN 101620 (synthetic). The conditions noted are these: pair 101623/101620, K562; 10.6 with 101622, 0 with 101621.
In data set [5] the test system is TALEN 101624 (synthetic). The settings on record: pair 101625/101624, K562.
In data set [6] the test system is ZFN 25029 (PD1) (synthetic). The settings on record: pair 12942/25029, Cel-I, K562; also active in PBMC (FIG. 2).
Data set [7] concerns ZFN 12942 (PD1) (synthetic). The settings on record: pair 12942/25029, Cel-I, K562; also active in PBMC (FIG. 2).
Data set [8] deals with TALEN 101632 (synthetic). The settings on record: pair 101633/101632, K562.
Data set [9] has as its system TALEN 101640 (synthetic). The conditions noted are these: pair 101641/101640, K562.
In data set [10] the test system is TALEN 101633 (synthetic). The settings on record: pair 101633/101632, K562.
Data set [11] concerns TALEN 101641 (synthetic). The settings on record: pair 101641/101640, K562; RVD 16 printed ND.
For data set [12], the system named is TALEN 101626 (synthetic). The conditions noted are these: pair 101627/101626, K562.
Data set [13] has as its system TALEN 101621 (synthetic). The settings on record: pair 101621/101618, K562; 18.1 with 101619, 0 with 101620.
Data set [14] deals with TALEN 101627 (synthetic). The conditions noted are these: pair 101627/101626, K562.
Data set [15] deals with TALEN 101618 (synthetic). The conditions noted are these: pair 101621/101618, K562; 14.7 with 101622, 6.8 with 101623.
Data set [16] deals with ZFN 20189 (CTLA-4) (synthetic). The settings on record: pair 20190/20189, Cel-I, K562.

Sequence “ACAGTGCTTCGGCAGGCTGACAGCCAGG (double strand) [CTLA-4 site 20186]” registered an activity in [1] of 3.3 % indels.
Sequence “ACCCGGACCTCAGTGGCTTTGCCTGGAG (double strand) [CTLA-4 site 20185]” yielded an activity in [2] of 3.3 % indels.
In data set [3], “ACTACCTGGGCATAGGCAACGGAACCCA (double strand) [CTLA-4 site 20190]” registered an activity of 1.8 % indels.
In the case of “ATGCAGATCCCACAGGCGC (double strand) [PD1 site 101620/101624]”, the values for the activity in [4] and in data set [5] were 11.6 % NHEJ and 10.1 % NHEJ, respectively.
The sequence “CAGTCGTCTGGGCGGTGCT (double strand) [PD1 site 25029]” displayed an activity in data set [6] of 14.7 % NHEJ.
“CCAGGGCGCCTGTGGGATCTGCATGCCT (double strand) [PD1 site 12942]” showed an activity in data set [7] of 14.7 % NHEJ.
Consider “CTACCTCTGTGGGGCCATCTC (double strand) [PD1 site 101632/101640]”, for which the activity in data set [8] turned out to be 14.7 % NHEJ; in [9] it was 23 % NHEJ.
With “CTCTCTTTGATCTGCGCCTTG (double strand) [PD1 site 101633/101641]”, the activity was found to be 14.7 % NHEJ in data set [10] and 23 % NHEJ in [11].
On to “CTTCTCCCCAGCCCTGCTCGT (double strand) [PD1 site 101626]”, for which the activity in [12] was determined as 12.5 % NHEJ.
In turn, “GTAGCACCGCCCAGACGACTG (double strand) [PD1 site 101621]” showed an activity in [13] of 23.5 % NHEJ.
As to “GTGAAGGTGGCGTTGTCCCCT (double strand) [PD1 site 101627]”, in data set [14], the activity is 12.5 % NHEJ.
For the sequence “GTGCTCCAGGCATGCAGATCC (double strand) [PD1 site 101618]”, the activity in [15] was 23.5 % NHEJ.
In the case of “TGGCGGTGGGTACATGAGCTCCACCTTG (double strand) [CTLA-4 site 20189]”, in data set [16], the activity was determined as 1.8 % indels.

The record behind these values is patent publication US20170183420.
